The numbers were not newly measured in publication PMC7156917, which cites them from elsewhere.

For data set [1], the target named is CCR5 (Homo sapiens) (UniProt P51681). Briefly: equilibrium binding assay.
The target of data set [2] is CXCR4 (Homo sapiens) (UniProt P61073). Briefly: SPR. On the technique in general: SPR reads the build-up and loss of mass on a sensor chip optically.
Sequence of UniProt P61073 (P61073 whole entry): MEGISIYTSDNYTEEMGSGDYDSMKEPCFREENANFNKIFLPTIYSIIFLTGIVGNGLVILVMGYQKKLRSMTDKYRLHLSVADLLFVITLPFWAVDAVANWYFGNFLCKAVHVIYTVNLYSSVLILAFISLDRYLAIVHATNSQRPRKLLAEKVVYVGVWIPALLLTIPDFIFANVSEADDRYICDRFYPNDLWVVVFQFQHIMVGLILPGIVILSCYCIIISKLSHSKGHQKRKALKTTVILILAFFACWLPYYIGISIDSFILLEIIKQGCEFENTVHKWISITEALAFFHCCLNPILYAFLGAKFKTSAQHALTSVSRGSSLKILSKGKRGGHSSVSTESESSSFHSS

Sequence of UniProt P51681 (P51681 whole entry): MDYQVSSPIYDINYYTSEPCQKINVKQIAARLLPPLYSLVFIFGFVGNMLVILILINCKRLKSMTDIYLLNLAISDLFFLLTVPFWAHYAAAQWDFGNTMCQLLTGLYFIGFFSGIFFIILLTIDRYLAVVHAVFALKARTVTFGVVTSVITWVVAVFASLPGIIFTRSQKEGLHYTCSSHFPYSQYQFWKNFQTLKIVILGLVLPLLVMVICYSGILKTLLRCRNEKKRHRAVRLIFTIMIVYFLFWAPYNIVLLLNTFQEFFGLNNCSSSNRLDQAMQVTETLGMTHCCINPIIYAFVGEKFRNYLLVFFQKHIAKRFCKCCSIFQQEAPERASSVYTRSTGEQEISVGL

The term Kd denotes the equilibrium constant for the complex coming apart. Regarding “HIV Env gp120 gp120 (from UniProt O70902)”, the Kd was 5 nM in data set [1] and 500 nM in data set [2].
